Results taken from patent publication US20110008774A1.

Biological target: β-galactosidase (β-gal, Sigma) (E. coli) [β-galactosidase: P00722]
Experiment: panning of mixtures with wt scFv13-SecM17 ARM complexes in 10:1, 100:1, 1,000:1 or 10,000:1 excess on immobilized β-gal; 10 clones sequenced per mixture

Chain of β-galactosidase (β-gal, Sigma) (E. coli) [β-galactosidase: P00722] (P00722 2-1024 limits assumed): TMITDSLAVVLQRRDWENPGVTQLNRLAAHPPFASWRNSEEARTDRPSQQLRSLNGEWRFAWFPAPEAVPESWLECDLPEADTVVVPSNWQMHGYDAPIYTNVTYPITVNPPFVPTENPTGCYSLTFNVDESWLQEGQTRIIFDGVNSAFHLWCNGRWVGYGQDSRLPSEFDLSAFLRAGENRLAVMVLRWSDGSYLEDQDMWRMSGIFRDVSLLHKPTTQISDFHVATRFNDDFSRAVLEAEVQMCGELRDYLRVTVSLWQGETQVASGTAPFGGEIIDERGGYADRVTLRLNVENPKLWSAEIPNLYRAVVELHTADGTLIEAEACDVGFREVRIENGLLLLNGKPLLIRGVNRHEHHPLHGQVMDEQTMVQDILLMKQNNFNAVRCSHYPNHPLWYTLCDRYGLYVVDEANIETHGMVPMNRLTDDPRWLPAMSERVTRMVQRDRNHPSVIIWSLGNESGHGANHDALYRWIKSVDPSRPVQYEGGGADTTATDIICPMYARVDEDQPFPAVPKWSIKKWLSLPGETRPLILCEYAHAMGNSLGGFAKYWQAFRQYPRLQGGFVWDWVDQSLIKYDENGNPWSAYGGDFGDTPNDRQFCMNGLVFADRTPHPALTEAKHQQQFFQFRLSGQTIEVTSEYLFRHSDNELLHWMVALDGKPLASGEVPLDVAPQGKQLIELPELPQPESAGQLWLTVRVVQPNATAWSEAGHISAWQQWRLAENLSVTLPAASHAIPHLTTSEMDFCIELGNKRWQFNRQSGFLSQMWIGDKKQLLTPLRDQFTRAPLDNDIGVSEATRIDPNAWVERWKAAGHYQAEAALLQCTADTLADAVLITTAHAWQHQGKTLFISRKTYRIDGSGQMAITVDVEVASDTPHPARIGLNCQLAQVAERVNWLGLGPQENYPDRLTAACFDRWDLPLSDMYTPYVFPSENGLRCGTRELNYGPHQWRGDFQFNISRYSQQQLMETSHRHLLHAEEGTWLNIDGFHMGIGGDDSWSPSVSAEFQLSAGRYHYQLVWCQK

share of sequenced clones recovered after panning: 100%
Substance: scFv13-R4-SecM17 fusion
